Experimental data published in patent publication US20230125550A1 (ARCELLX, published 2023).
Numbering of substitutions follows the chain as printed.

T1: recombinant human CD123-Fc (human, UniProt P26951 19-305)
T1 construct: not shown: Fc part of CD123-Fc
T1 sequence: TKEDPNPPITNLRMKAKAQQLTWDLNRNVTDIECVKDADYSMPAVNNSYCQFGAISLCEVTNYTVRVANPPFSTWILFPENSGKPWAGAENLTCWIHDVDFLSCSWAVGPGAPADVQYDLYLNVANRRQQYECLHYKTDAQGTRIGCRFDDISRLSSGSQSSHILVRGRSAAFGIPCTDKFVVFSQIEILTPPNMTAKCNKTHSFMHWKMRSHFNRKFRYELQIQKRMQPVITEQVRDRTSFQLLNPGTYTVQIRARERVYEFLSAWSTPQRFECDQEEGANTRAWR

B1: SEQ ID NO: 335 (designed binder)
chain: MGSWDEFYYRLEAIEMRLGALGGSEAELAAFEKEIAAFESELQAYKGKGNPEVEELRHYAAQIRHMLQAYRHN
notes: D domain, on phage
B2: SEQ ID NO: 336 (designed binder)
chain: B1 chain with D5E, Y9D, E15Y, M16N, E55V, H58E, Q62D, H65E
notes: D domain, on phage
B3: SEQ ID NO: 437 (designed binder)
chain: MGSWWLFKDDLAEIKYWLEALGGSEAELAFFEDDIAEFERGLQIYKGKGNPEVEALRKEAAAIRDELQAYRHN
notes: D domain, on phage
B4: SEQ ID NO: 438 (designed binder)
chain: B3 chain with W5Y, L6E, Y16E, D33L, E37D, R40W, G41L, I44L
notes: D domain, on phage
B5: SEQ ID NO: 375 (designed binder)
chain: MGSWYEFSNRLDAIGERLWALGGSEAELAAFEKEIAAFESELQAYKGKGNPEVEILRHQAAEIRWFLQAYRHN
notes: D domain, on phage
B6: SEQ ID NO: 334 (designed binder)
chain: MGSWDEFAWRLDVIFARLGALGGSEAELAAFEKEIAAFESELQAYKGKGNPEVEELRKNAAQIRDGLQAYRHN
notes: D domain, on phage
B7: SEQ ID NO: 361 (designed binder)
chain: MGSWDEFEQRLIAIEERLFALGGSEAELAAFEKEIAAFESELQAYKGKGNPEVEWLREEAAVIRKYLQAYRHN
notes: D domain, on phage
B8: SEQ ID NO: 398 (designed binder)
chain: B7 chain with D5S, Q9H, I12E, E16S, W55D, E58S, V62W, K65E, Y66Q
notes: D domain, on phage
B9: SEQ ID NO: 377 (designed binder)
chain: MGSWVEFWDRLWAIDYRLFALGGSEAELAAFEKEIAAFESELQAYKGKGNPEVEALRDEAAWIREELQAYRHN
notes: D domain, on phage
B10: SEQ ID NO: 384 (designed binder)
chain: B9 chain with V5D, W8E, D9E, W12F, Y16E, F19W, D58Y, E59L, W62D
notes: D domain, on phage
B11: SEQ ID NO: 433 (designed binder)
chain: B9 chain with V5N, W8E, W12D, D15W, Y16W, D58V, W62F, E65T, E66M
notes: D domain, on phage
B12: SEQ ID NO: 432 (designed binder)
chain: B9 chain with V5F, W8Y, D9E, W12D, D15N, Y16W, D58G, W62A, E66D
notes: D domain, on phage
B13: SEQ ID NO: 391 (designed binder)
chain: B9 chain with V5S, W8E, Y16Q, A55W, D58A, E59Y, W62D, E65W
notes: D domain, on phage
B14: SEQ ID NO: 392 (designed binder)
chain: B9 chain with V5T, D9E, W12N, Y16E, A55W, D58L, E59Y, W62E, E65S
notes: D domain, on phage
B15: SEQ ID NO: 394 (designed binder)
chain: B5 chain with Y5W, S8E, D12W, G15E, W19E, I55M, H58N, Q59Y, F66E
notes: D domain, on phage
B16: SEQ ID NO: 395 (designed binder)
chain: B9 chain with W8E, D9E, Y16E, F19G, A55W, E59W, W62D, E65W, E66W
notes: D domain, on phage
B17: SEQ ID NO: 378 (designed binder)
chain: B9 chain with W8V, Y16E, F19D, A55F, D58T, E59W, E66D
notes: D domain, on phage
B18: SEQ ID NO: 396 (designed binder)
chain: B7 chain with D5V, Q9E, I12E, E58D, E59D, V62N, K65H, Y66W
notes: D domain, on phage
B19: SEQ ID NO: 390 (designed binder)
chain: B9 chain with V5S, W8Y, D15E, Y16E, A55Y, D58Y, E59Y, W62E
notes: D domain, on phage
B20: SEQ ID NO: 434 (designed binder)
chain: MGSWFYFKDDLADINYMLEALGGSEAELAMFEDDIAGFELTLLKYKGKGNPEVEALRKEAAAIRDELQAYRHN
notes: D domain, on phage
B21: SEQ ID NO: 327 (designed binder)
chain: MGSWTEFVWRLEAIWDRLDALGGSEAELAAFEKEIAAFESELQAYKGKGNPEVEVLREDAAVIRHFLQAYRHN
notes: D domain, on phage
B22: SEQ ID NO: 393 (designed binder)
chain: MGSWWEFEERLWAIDYRLHALGGSEAELAAFEKEIAAFESELQAYKGKGNPEVEMLRSWAAEIRALLQAYRHN
notes: D domain, on phage
B23: SEQ ID NO: 435 (designed binder)
chain: MGSWHFFKDDLAWIKNELEALGGSEAELAMFEDDIAMFETMLQSYKGKGNPEVEALRKEAAAIRDELQAYRHN
notes: D domain, on phage
B24: SEQ ID NO: 436 (designed binder)
chain: B23 chain with F6W, D9T, W13D, N16E, M37E, T40E, M41F, S44M
notes: D domain, on phage
B25: SEQ ID NO: 374 (designed binder)
chain: MGSWEEFFTRLDAINERLEALGGSEAELAAFEKEIAAFESELQAYKGKGNPEVEMLRYEAAEIRHMLQAYRHN
notes: D domain, on phage
B26: SEQ ID NO: 362 (designed binder)
chain: MGSWVEFDQRLGAIWDRLVALGGSEAELAAFEKEIAAFESELQAYKGKGNPEVEHLRQGAAVIRDDLQAYRHN
notes: D domain, on phage
B27: SEQ ID NO: 373 (designed binder)
chain: MGSWFEFNYRLGAIEDRLWALGGSEAELAAFEKEIAAFESELQAYKGKGNPEVEMLRQIAAEIREFLQAYRHN
notes: D domain, on phage
B28: SEQ ID NO: 400 (designed binder)
chain: MGSWFEFWGRLEAIESRLKALGGSEAELAAFEKEIAAFESELQAYKGKGNPEVEELREHAAWIRAYLQAYRHN
notes: D domain, on phage
B29: SEQ ID NO: 365 (designed binder)
chain: MGSWHEFDQRLWAIEERLWALGGSEAELAAFEKEIAAFESELQAYKGKGNPEVETLRLYAALIRHDLQAYRHN
notes: D domain, on phage
B30: SEQ ID NO: 425 (designed binder)
chain: MGSWYEFSMRLDAIYDRLMALGGSEAELAAFEKEIAAFESELQAYKGKGNPEVEQLRGYAANIRNELQAYRHN
notes: D domain, on phage
B31: SEQ ID NO: 401 (designed binder)
chain: B30 chain with Y5Q, S8T, D16N, M19E, A20T, Q55W, G58Q, Y59S, N65S
notes: D domain, on phage
B32: SEQ ID NO: 431 (designed binder)
chain: B30 chain with Y5S, S8Y, M9L, M19D, Q55W, G58K, Y59T, N65E
notes: D domain, on phage
B33: SEQ ID NO: 427 (designed binder)
chain: B30 chain with Y5I, S8E, M9V, D16N, M19A, Q55R, G58R, N65H
notes: D domain, on phage
B34: SEQ ID NO: 430 (designed binder)
chain: B30 chain with S8D, M9Y, M19A, Q55R, G58K, Y59W, N65E
notes: D domain, on phage
B35: SEQ ID NO: 426 (designed binder)
chain: B30 chain with Y5V, S8I, M9Y, M19E, Q55V, G58R
notes: D domain, on phage
B36: SEQ ID NO: 428 (designed binder)
chain: B30 chain with Y5F, S8Y, M9D, D16M, M19I, Q55V, G58R, N65A
notes: D domain, on phage
B37: SEQ ID NO: 429 (designed binder)
chain: B30 chain with Y5F, S8Y, M19T, Q55R, G58T, Y59F, N65K
notes: D domain, on phage
B38: SEQ ID NO: 389 (designed binder)
chain: MGSWWEFIWRLEAIEQRLWALGGSEAELAAFEKEIAAFESELQAYKGKGNPEVEVLRSRAADIRTDLQAYRHN
notes: D domain, on phage
B39: SEQ ID NO: 387 (designed binder)
chain: MGSWLEFMWRLDAIDERLWALGGSEAELAAFEKEIAAFESELQAYKGKGNPEVELLREMAAAIRDDLQAYRHN
notes: D domain, on phage
B40: SEQ ID NO: 385 (designed binder)
chain: MGSWEEFWERLDAIDTRLWALGGSEAELAAFEKEIAAFESELQAYKGKGNPEVEVLRNDAADIREPLQAYRHN
notes: D domain, on phage
B41: SEQ ID NO: 386 (designed binder)
chain: B40 chain with E5M, D12E, T16M, V55Y, N58D, D62V, E65D, P66D
notes: D domain, on phage
B42: SEQ ID NO: 388 (designed binder)
chain: B39 chain with L5T, M8Y, W9N, E16Q, L55M, M59Y, A62D, D65T
notes: D domain, on phage
B43: SEQ ID NO: 333 (designed binder)
chain: MGSWEEFAQRLYAIEWRLYALGGSEAELAAFEKEIAAFESELQAYKGKGNPEVEVLRYVAAQIRYHLQAYRHN
notes: D domain, on phage
B44: SEQ ID NO: 352 (designed binder)
chain: B7 chain with E8G, Q9R, I12Y, E16W, F19Y, W55K, E59I, K65S, Y66N
notes: D domain, on phage
B45: SEQ ID NO: 366 (designed binder)
chain: MGSWVEFWDRLDAIEGRLWALGGSEAELAAFEKEIAAFESELQAYKGKGNPEVEDLRWLAAEIRADLQAYRHN
notes: D domain, on phage
B46: SEQ ID NO: 376 (designed binder)
chain: B45 chain with V5Y, D9G, G16E, K48R, D55M, W58E, L59D, A65G, D66Q
notes: D domain, on phage
B47: SEQ ID NO: 399 (designed binder)
chain: B40 chain with E5F, D15E, T16W, V55E, N58S, D59T, E65R, P66Y
notes: D domain, on phage

Molecular target: T1, recombinant human CD123-Fc
Test: phage ELISA, captured CD123-Fc
Experimental: Individual colonies containing phagemid from BCMA panning output were picked and phage were rescued in 96-well format using VCSM13 helper phage following standard protocols. To assay target binding by ELISA, 96-well plates were coated with 1.3 microg/ml goat anti-human IgG1-Fc antibody followed by incubation with 5 nM of recombinant human target (BCMA-Fc, CD123-Fc, AFP, or AFP123) or IgG1-Fc. 50 microl of rescued phage diluted 5× in ELISA blocking buffer was then added to each well. Binding was detected using an HRP-conjugated anti-M13 antibody and the ELISA ratio for each sequence is reported as the absorbance at 450 nm for target (i.e., BCMA-Fc, CD123-Fc, AFP, or AFP123) divided by that for IgG1-Fc averaged across all screened wells containing that clone.

Binder | ELISA_avg [ratio A450 target/IgG1-Fc]
B1 | 7.2
B2 | 18.6
B3 | 3.3
B4 | 3.8
B5 | 3.9
B6 | 4.6
B7 | 5.9
B8 | 7.6
B9 | 3.6
B10 | 5
B11 | 5.1
B12 | 3
B13 | 4.2
B14 | 4
B15 | 5.6
B16 | 4.1
B17 | 3.2
B18 | 3.8
B19 | 17
B20 | 3.7
B21 | 3.6
B22 | 4.1
B23 | 3.2
B24 | 3.5

Binder | ELISA_avg [ratio A450 target/IgG1-Fc]
B25 | 3.9
B26 | 5.3
B27 | 6.9
B28 | 4.9
B29 | 3.3
B30 | 13
B31 | 13.7
B32 | 15.7
B33 | 20.8
B34 | 24.9
B35 | 17
B36 | 13.6
B37 | 13.1
B38 | 4
B39 | 5.1
B40 | 6.8
B41 | 4.2
B42 | 3.3
B43 | 16.9
B44 | 5.8
B45 | 3.5
B46 | 5.4
B47 | 3.4
